Results reported in patent CN114773460A.

Target: 轮状病毒重组蛋白VP8 (recombinant rotavirus VP8, part of the spike protein VP4) (轮状病毒 (rotavirus; strain not stated))
Assay: ELISA, antigen coated at 10 μg/mL, Rot1 in 2-fold dilutions from 10 μg/mL (16 points), anti-His detection, OD450

B1: 纳米抗体Rot1 (nanobody Rot1, fusion protein with C-terminal histidine tag and human influenza hemaggluti (VHH)
VHH: QVQLQESGGGLVQAGGSLRLSCTASGYRFSNLAVGWFRQAPGQEREAVAVIFVGGITYYADSVKGRFTISRDNAKNTVTLQMNNLKPEDTAIYYCAAYVHMYCASQTITRYDYWGQGTQVTVSS
- EC50: 0.195 µg/mL
